Experimental data as given in PMC12043514 (Nature, 2024).

B1: simian virus 40 large tumour antigen (LTag) helicase (enzyme)
chain: MDKVLNREESLQLMDLLGLERSAWGNIPLMRKAYLKKCKEFHPDKGGDEEKMKKMNTLYKKMEDGVKYAHQPDFGGFWDATEIPTYGTDEWEQWWNAFNEENLFCSEEMPSSDDEATADSQHSTPPKKKRKVEDPKDFPSELLSFLSHAVFSNRTLACFAIYTTKEKAALLYKKIMEKYSVTFISRHNSYNHNILFFLTPHRHRVSAINNYAQKLCTFSFLICKGVNKEYLMYSALTRDPFSVIEESLPGGLKEHDFNPEEAEETKQVSWKLVTEYAMETKCDDVLLLLGMYLEFQYSFEMCLKCIKKEQPSHYKYHEKHYANAAIFADSKNQKTICQQAVDTVLAKKRVDSLQLTREQMLTNRFNDLLDRMDIMFGSTGSADIEEWMAGVAWLHCLLPKMDSVVYDFLKCMVYNIPKKRYWLFKGPIDSGKTTLAAALLELCGGKALNVNLPLDRLNFELGVAIDQFLVVFEDVKGTGGESRDLPSGQGINNLDNLRDYLDGSVKVNLEKKHLNKRTQIFPPGIVTMNEYSVPKTLQARFVKQIDFRPKDYLKHCLERSEFLLEKRIIQSGIALLLMLIWYRPVAEFAQSIQSRIVEWKERLDKEFSLSVYQKMKFNVAMGIGVLDWLRNSDDDDEDSQENADKNEDGGEKNMEDSGHETGIDSQSQGSFQAPQSSQSVHDHNQPYHICRGFTCFKKPPTPPPEPET
B2: gap DNA substrate without free 3' ssDNA tail (mixed)
DNA 1: AGCTATGACCATGATTACGAATTGC
DNA 2: TTTTTCGGAGTCGTTTCGACTCCGATTTTTTTTTTTTTTTTTTTTTTTTTTTTTTTTTTTTTTTTTTTTTGCAATTCGTAATCATGGTCATAGCT
modifications: 3' terminal dideoxy-C ([23ddC]) on strand 1

What was measured:
[1] = target: the molecule itself; experiment: cryo-EM structure
[2] = target: SV40 large tumour antigen (LTag) helicase hexamer (Simian virus 40, UniProt P03070 1-708); experiment: cryo-EM

Row | Binder | stoichiometry N [1] | binding result [2]
1 | B1 | 6 | 
2 | B2 |  | no binding
